How the values were obtained:
[1] = target: 5FW-BPTF (bromodomain of the bromodomain- and PHD finger-containing transcription factor, labelled with 5-fluorotryptophan) (human); assay: NMR titration
[2] = target: 5FW-labeled BRD4(2) (second bromodomain of BRD4) (human) (UniProt O60885); assay: NMR titration
[3] = target: 5FW-CECR2 (bromodomain of CECR2, labelled with 5-fluorotryptophan) (human); assay: NMR titration
[4] = target: 5FW-labeled BRD2(2) (second bromodomain of BRD2) (human); assay: NMR titration
[5] = target: His9-tagged BPTF bromodomain (human); assay: AlphaScreen or HTRF
[6] = target: GST-BPTF (glutathione S-transferase-tagged BPTF, not labeled with fluorine) (human); assay: SPR

Row | Substance | Kd [1] [µM] | further results
1 | H2A.Z II K4ac,K7ac N-terminal tail peptide | 660 | 
2 | H2A.Z II K4ac,K13ac N-terminal tail peptide | 790 | 
3 | H2A.Z II K11ac,K13ac N-terminal tail peptide | 790 | 
4 | H2A.Z II K4ac,K15ac N-terminal tail peptide | 430 | 
5 | H2A.Z I K7ac,K13ac N-terminal tail peptide | 520 | fold higher affinity than for H2A.Z II K7ac,K13ac [2]: 2 fold; Kd [3]: 130 µM; Kd [4]: 680 µM; fold higher affinity than for H2A.Z II K7ac,K13ac [4]: 2 fold
6 | H2A.Z I K11ac,K13ac N-terminal tail peptide | 1440 | 
7 | H2A.Z I K4ac,K15ac N-terminal tail peptide | 630 | 
8 | H2A.Z II K7ac,K13ac N-terminal tail peptide | 310 | IC50 [5]: 830 µM; Kd [6]: 195 µM
9 | H2A.Z I K4ac,K13ac N-terminal tail peptide | 780 | 
10 | H2A.Z II K4ac,K11ac N-terminal tail peptide | 760 | 
11 | H2A.Z II K7ac,K11ac N-terminal tail peptide | 780 | 

— PMC7771244
